From the supplement of paper PMC12042874 come the findings set out here.

± gives the uncertainty stated by the source.

The data set in a line: amyloid nucleation score (Sup35N fusion, yeast selection) (log enrichment); library NNK1; higher = more nucleation; inactive = no reads after selection. In outline: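 Three technical output replicates were used for random libraries. Psi-negative yeast expressing peptides of 20 random codons fused to Sup35N were induced with 100 μM copper sulfate for 24 hours and grown 7 days at 30°C on medium lacking adenine and uracil, and input and output plasmid inserts were Illumina-sequenced, excluding sequences with under 100 input reads. The nucleation score is the DiMSum log enrichment of output over input reads, centred on the mode score of non-aggregating sequences.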
For the substance KSDVAARVCDER, the amyloid nucleation score is 0.526 ± 0.31.

The substance SHPMDKRLWEKSYKAVGVCV came in with an amyloid nucleation score of 0.174 ± 0.58.

In turn, LDWHKLRDWVKLGW had an amyloid nucleation score of -0.255 ± 0.73.

TYFSISQLLGFFQSVGPYVF returned an amyloid nucleation score of 0.108 ± 0.56.

In turn, GFCLVVLGYCFYMFYATNNS showed an amyloid nucleation score of 0.042 ± 0.9.

The substance LCDSPSKYNGPEYSMYVNLN had an amyloid nucleation score of 1.51 ± 0.7.

CLVVTETANI registered an amyloid nucleation score of -0.578 ± 0.69.

In turn, GVVSFNFDSLQF showed an amyloid nucleation score of -0.471 ± 0.65.

ARMVVCHPAGFGGAWPSRWC returned an amyloid nucleation score of -0.105 ± 0.93.

For the substance SLGFIFTEILYIFIVAWFII, the amyloid nucleation score was determined as 0.198 ± 0.47.

YKNFKFSDDTRMFVNNVSVY returned an amyloid nucleation score of 1.25 ± 0.56.

Regarding TGATATYKFFIFFIL, the amyloid nucleation score stood at 1.28 ± 0.22.

As to WGNLASRLQALDQVRRSGSM, the amyloid nucleation score was -0.56 ± 0.57.

FRHVQSMRACFLKSKYGATI registered an amyloid nucleation score of 0.195 ± 0.84.

On to RCCGLYVSLWIS, for which the amyloid nucleation score amounted to 0.425 ± 0.6.

For the substance WKQLTCWSEILDTIDSL, the amyloid nucleation score came to 0.901 ± 0.79.

HSFSFCCSSYSCNLVGIELN returned an amyloid nucleation score of 7.599 ± 0.043.

NGHHALLYMPFAQTC displayed an amyloid nucleation score of -0.745 ± 1.2.

As for NIIDVTSDSCKPYHILEAIV, the amyloid nucleation score stood at 0.015 ± 0.34.

YTMFLPFRLR registered an amyloid nucleation score of 0.376 ± 0.8.

With SIFLKIPNREVLSSFRWTCF, the amyloid nucleation score was -0.372 ± 0.22.

In the case of PLCHWKA, the amyloid nucleation score was -0.325 ± 0.53.

In turn, VKVCMGLGYSGLMLGGLWDS had an amyloid nucleation score of -0.491 ± 1.9.

KWTGRGSYNDRLFVRRRMF displayed an amyloid nucleation score of -0.073 ± 0.47.

TSYTNAVFESNFA came in with an amyloid nucleation score of -0.426 ± 0.3.

For the substance GDDLQFT, the amyloid nucleation score was 1.88 ± 0.69.

As for SGRPGTAQLRVVLGHNQKCA, the amyloid nucleation score came out at 1.12 ± 0.97.

Substance ASAGPRWIWFGLGLQRCDAY came in with an amyloid nucleation score of -0.141 ± 0.87.

LMLISHEDFLLVFAWFN displayed an amyloid nucleation score of -0.062 ± 0.54.

For the substance KHQGNMTTINNKRAARLLGP, the amyloid nucleation score result is “inactive”.

For TIWDSRTSFVYS, the amyloid nucleation score was 0.254 ± 0.56.

Turning to LRAYSVAFYRLPHVSN, the amyloid nucleation score is 1.35 ± 0.79.

VCNQWGDHA came in with an amyloid nucleation score of -1.08 ± 1.7.

Regarding SIKFIRTYWWITNSVDKFV, the amyloid nucleation score entry was “inactive”.

The substance SQFISK displayed an amyloid nucleation score of 1.14 ± 0.52.

Substance FADNWLCKIRYSCGISLSKY showed an amyloid nucleation score of -0.739 ± 0.39.

In turn, MTWNNWCSMRLACIS came in with an amyloid nucleation score of 3.9 ± 0.074.

For FNAVATKSVNRGRSLLDVTQ, the amyloid nucleation score was found to be 0.62 ± 0.8.

For the substance FSCSVDLKSSHMEVARNGYP, the amyloid nucleation score entry was “inactive”.

For WHPRSLVPPTRL, the amyloid nucleation score is 0.758 ± 0.56.

In turn, YGYMGGCHFPLYLMRIDSRD had an amyloid nucleation score of 0.564 ± 0.75.

Consider PKSIGAFLTCHISRHVYYVI, for which the amyloid nucleation score came to 1.08 ± 0.66.

SGIRLM displayed an amyloid nucleation score of -1.32 ± 1.8.

For the substance FWRNEVMLSCVGTAMARRVF, the amyloid nucleation score was 0.398 ± 0.37.

The substance LKYLR registered an amyloid nucleation score of 1.14 ± 0.15.

In turn, DGDVE displayed an amyloid nucleation score of -0.494 ± 0.74.

LIQIDLF: the amyloid nucleation score is -0.264 ± 0.56.

Regarding ESIFLRRTVALHRKVCLIDW, the amyloid nucleation score turned out to be 0.783 ± 0.36.

Substance ELGTVFGLTYYTMTDYVPMT yielded an amyloid nucleation score of 0.483 ± 0.22.

Take QISVNQIY: the amyloid nucleation score entry is “inactive”.

The substance EPCMWKVILYCEYVSLVFVK yielded an amyloid nucleation score of -0.974 ± 1.9.

As for FIRLLGSMV, the amyloid nucleation score is 0.622 ± 0.84.

In turn, NLWKVFCSCLNRDMKALGNW showed an amyloid nucleation score of -1.04 ± 0.51.

WSLQKRG: the amyloid nucleation score result is “inactive”.

With PRCSMRLLGYTPIYDGKS, the amyloid nucleation score is -0.781 ± 1.1.

CLVELVYFCGLSVGQ showed an amyloid nucleation score of -0.17 ± 0.85.

HEKDWLTSVCFISELSTFNN showed an amyloid nucleation score of 0.709 ± 0.65.

In the case of TVASRFEFYTKDWAYRNGRL, the amyloid nucleation score stood at 1.76 ± 0.33.

Substance TVFDSLC gave an amyloid nucleation score of 0.372 ± 1.2.

Consider YYVLFNAFQLIPLGWGNYS, for which the amyloid nucleation score entry was “inactive”.

The substance TIFLQALGYSRWLLEISMDR registered an amyloid nucleation score of -1.06 ± 0.96.

For TADFLCSINEAFSVFTLLRE, the amyloid nucleation score came to 1.03 ± 0.93.

Turning to TLRLSFCRYMAFWHCNRSMA, the amyloid nucleation score was -1.14 ± 1.1.

In turn, GFPRCVWFNSSVIQESSFFV displayed an amyloid nucleation score of 0.571 ± 1.2.

Substance VIDRTEGTYCREITTFHYYN displayed an amyloid nucleation score of -0.378 ± 0.62.

VFCYQT had an amyloid nucleation score of 0.055 ± 1.1.

For the substance MYFCM, the amyloid nucleation score was found to be 6.7 ± 0.059.

Take MSVLAIMHLGPGHFAAAYY: the amyloid nucleation score came out at 0.186 ± 0.4.

In the case of LWLLHGFDWWKCIYLPGRFL, the amyloid nucleation score turned out to be 0.307 ± 0.97.

The substance CIFTRKGIEVVCWLEGRMVP showed an amyloid nucleation score of 0.411 ± 1.2.

Regarding RFLSVISDKTIAYWPSDVVS, the amyloid nucleation score is 0.377 ± 0.99.

Regarding QMGCAYEDARRSHDFKCCFG, the amyloid nucleation score came out at 0.013 ± 0.42.

On to MMLRLRT, for which the amyloid nucleation score entry was “inactive”.

In turn, TPRYVLLVC gave an amyloid nucleation score of -0.983 ± 2.4.

As for RFGFSLSADIMDPRMIVRCM, the amyloid nucleation score is -0.227 ± 0.24.

GNSRQYAFNRQIHMSSGESR displayed an amyloid nucleation score of -0.535 ± 0.66.

Substance SSTFCVAQYQSYWLCEVKWV yielded an amyloid nucleation score of 0.086 ± 1.4.

For MTVKSAPK, the amyloid nucleation score was determined as 0.258 ± 0.55.

Substance MIDRRKSLVEGRGRNCVSGC registered an amyloid nucleation score of -0.646 ± 1.1.

The substance VVVYGCLYILVARRYDTIAW showed an amyloid nucleation score of 0.493 ± 0.84.

Take WNIRGVMGLSNVR: the amyloid nucleation score is -0.058 ± 0.29.

NLVAT registered an amyloid nucleation score of 1.09 ± 0.67.

Substance WDEFGVDEWSYWLLLWYVAR returned an amyloid nucleation score of 0.799 ± 0.97.

Take LALKYPSLISPKRWT: the amyloid nucleation score amounted to 0.688 ± 0.36.

SMVPQTMGVSQESRCYAGSC showed an amyloid nucleation score of -0.215 ± 0.65.

SNMRRASFNHGGRWNSGRGN displayed an amyloid nucleation score of -1.1 ± 2.4.

For the substance WRLMRECTFSVS, the amyloid nucleation score is 0.137 ± 0.29.

Take FFVVVRAHIDPR: the amyloid nucleation score is 0.188 ± 0.5.

Regarding SFCAYFVAGIAGNIRVS, the amyloid nucleation score is 0.098 ± 0.42.

Turning to HYMMADLGFWQYP, the amyloid nucleation score is 0.138 ± 0.94.

In turn, HYTLCCKFFNQHVGHAMQNE returned an amyloid nucleation score of 1.87 ± 0.51.

As for GTKWVTLQRGGRLGMGRRSD, the amyloid nucleation score amounted to 0.562 ± 1.2.

In turn, KGGSPQYNGVTSMWWDRKFD returned an amyloid nucleation score of -0.255 ± 0.38.

In turn, YMTQIMHKARRFNAWPAVMM returned an amyloid nucleation score of 0.087 ± 0.3.

LAIEENVRDQSGDYVWALIL came in with an amyloid nucleation score of -0.122 ± 0.35.

Turning to KVFRLILGGVSNKYT, the amyloid nucleation score worked out at 0.228 ± 0.64.

For the substance MHWFRVN, the amyloid nucleation score stood at 0.324 ± 0.3.

In the case of SYRSVG, the amyloid nucleation score worked out at 0.25 ± 0.59.

Substance SSFSLGSTLF returned an amyloid nucleation score of 0.597 ± 0.52.

Substance LVSWSTVDVSQLTAWKKPAG returned an amyloid nucleation score of -0.431 ± 0.36.

For RLLGYLAGVGNVKICRPSAV, the amyloid nucleation score was 0 ± 1.

The substance NIFWST gave an amyloid nucleation score of 0.361 ± 0.78.

As to SGTESEFKVKMNKLQSSYMG, the amyloid nucleation score is -0.022 ± 0.45.

In turn, PVLYNHCGVNLCPTLCLSNY yielded an amyloid nucleation score of 7.199 ± 0.053.

EGYPTMSMNSRS had an amyloid nucleation score of 0.716 ± 0.44.

Regarding RSYSNPLSSVSLSNYSFGVY, the amyloid nucleation score was -0.353 ± 0.36.

Turning to TGRCR, the amyloid nucleation score result is “inactive”.

The substance SVTVM had an amyloid nucleation score of 1.74 ± 0.49.

The substance TFLNFWPQFCMEFY had an amyloid nucleation score of 5.98 ± 0.06.

PYLYRTLKKPLATHWSQFVK had an amyloid nucleation score of -1.22 ± 0.9.

In turn, LCMMMVQPLQGLSSAVTWSQ returned an amyloid nucleation score of -0.54 ± 0.35.

On to ARMFELRPLNRTHYSRAKRT, for which the amyloid nucleation score was 0.124 ± 0.5.

GGMIAIKHKFIYYDLELWGY came in with an amyloid nucleation score of -0.94 ± 0.43.

For TYRLH, the amyloid nucleation score was -0.57 ± 0.55.

In the case of VCSCRFLYI, the amyloid nucleation score is -1.53 ± 1.6.

Take LVGRYSWWQRRRHGTCMGTV: the amyloid nucleation score is 0.629 ± 0.54.

For the substance NISDTIC, the amyloid nucleation score came to 0.474 ± 0.85.

As to LDNWYISRFCCDVMTDANVD, the amyloid nucleation score is -0.322 ± 0.8.

ALRKVYCSFIHNIWACSWAI: the amyloid nucleation score result is “inactive”.

MKAGFHYYLVMLVRKE registered an amyloid nucleation score of 0.265 ± 0.31.

PNDPGKLSHGVSVVLYFDEL returned an amyloid nucleation score of 1.5 ± 0.39.

On to VYGSIKSVEANTVWML, for which the amyloid nucleation score came out at 3.32 ± 0.16.

LNLWPIDANVGWLWKRWRWR displayed an amyloid nucleation score of -0.538 ± 2.1.

Consider NGWILNLVWTVKNTSMTLIW, for which the amyloid nucleation score came to 0.678 ± 0.51.

Regarding VFGSKFGLKLITDFINILLR, the amyloid nucleation score entry is “inactive”.

The substance SRVSLRRQCYVRVNGLCLYI gave an amyloid nucleation score of 1.84 ± 0.3.

WLLWLTSSYKHQWMT: the amyloid nucleation score is -1.7 ± 1.4.

SCKLIDRAILICWRSPTALV came in with an amyloid nucleation score of 0.109 ± 1.6.

DGGNVV came in with an amyloid nucleation score of 0.452 ± 1.2.

Substance PYKLGCICITNDFSQAPTVA showed an amyloid nucleation score of -0.652 ± 0.92.

With SLITVSHMPWGCT, the amyloid nucleation score worked out at 0.342 ± 0.36.

IKPDWKMKNRDGTTTKLI: the amyloid nucleation score was determined as 2.6 ± 0.093.

For the substance AGKHLGNNIRYILVYGESFR, the amyloid nucleation score was -1.09 ± 0.85.

As to IPMLFMSLRV, the amyloid nucleation score amounted to 0.171 ± 0.26.

VRISVCNYWFMVVGMAF displayed an amyloid nucleation score of 0.251 ± 0.31.

Substance KIRRGCMLLGQHVWTT registered an amyloid nucleation score of 0.207 ± 0.35.

In the case of SMHHGFYCDVWLGGVILRCK, the amyloid nucleation score amounted to 0.047 ± 0.56.

In turn, MLLWSVSLNKKKTLKECRRQ came in with an amyloid nucleation score of 1.16 ± 0.67.

Substance FAYKVLTLMNKPEGKVQSDV displayed an amyloid nucleation score of -1.41 ± 2.4.

Regarding FIIISACSWLLSNWKTSGST, the amyloid nucleation score was found to be 6.974 ± 0.056.

In the case of FVGQRKLLLKEEAQGFLQCK, the amyloid nucleation score is -0.707 ± 1.2.

The substance FGDSFLSYGHMLIFFWYMTM returned an amyloid nucleation score of 1.21 ± 0.64.
